In article PMC12024694, “RNA Binding to CCRRM of PABPN1 Induces Conformation Change”:

What was measured:
[1] = biological target: T1, PABPN1 CCRRM fragment (coiled coil + RRM) (UniProt Q86U42 114-254); assay: EMSA; 40 uM RNA; protein:RNA ratio 0 to 10; EMSA and SHAPE: 10 mM Tris-HCl pH 8.0, 25 mM KCl, 10 mM NaCl, 1 mM MgCl2, 10% glycerol, 0.5 mM DTT, 25 C, 20 min (1M7 step at 35 C); BLI: room temperature, 0.5; details: protein: recombinant; tags: Trx and His (Ni-NTA) fusion, pET-MG vector
T1 sequence: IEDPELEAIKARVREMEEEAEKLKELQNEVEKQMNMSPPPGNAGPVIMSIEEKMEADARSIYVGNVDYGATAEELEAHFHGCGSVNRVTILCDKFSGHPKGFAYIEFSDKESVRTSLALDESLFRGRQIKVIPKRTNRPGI

[2] = biological target: T1, PABPN1 CCRRM fragment (coiled coil + …); assay: SHAPE footprinting (1M7); A-rich protected, CU-rich partly protected; CA-rich and GU-rich stable, AU-rich more reactive; text elsewhere calls GU-rich moderate affinity; EMSA and SHAPE: 10 mM Tris-HCl pH 8.0, 25 mM KCl, 10 mM NaCl, 1 mM MgCl2, 10% glycerol, 0.5 mM DTT, 25 C, 20 min (1M7 step at 35 C); BLI: room temperature, 0.5; details: protein: recombinant; tags: Trx and His (Ni-NTA) fusion, pET-MG vector
[3] = biological target: T1, PABPN1 CCRRM fragment (coiled coil + …); assay: BLI; kon 4.24e-5 (so in the source), koff 2.031e-3 s-1; text ranks A18 intermediate, inconsistent with values; EMSA and SHAPE: 10 mM Tris-HCl pH 8.0, 25 mM KCl, 10 mM NaCl, 1 mM MgCl2, 10% glycerol, 0.5 mM DTT, 25 C, 20 min (1M7 step at 35 C); BLI: room temperature, 0.5; details: protein: recombinant; tags: Trx and His (Ni-NTA) fusion, pET-MG vector; label: 5' biotin
[4] = biological target: T1, PABPN1 CCRRM fragment (coiled coil + …); assay: BLI; kon 3.589e-5 (so in the source), koff 1.34e-3 s-1; room temperature; EMSA and SHAPE: 10 mM Tris-HCl pH 8.0, 25 mM KCl, 10 mM NaCl, 1 mM MgCl2, 10% glycerol, 0.5 mM DTT, 25 C, 20 min (1M7 step at 35 C); BLI: room temperature, 0.5; details: protein: recombinant; tags: Trx and His (Ni-NTA) fusion, pET-MG vector; label: 5' biotin
[5] = biological target: T1, PABPN1 CCRRM fragment (coiled coil + …); assay: EMSA; 50 uM RNA; protein:RNA ratio 0 to 5; EMSA and SHAPE: 10 mM Tris-HCl pH 8.0, 25 mM KCl, 10 mM NaCl, 1 mM MgCl2, 10% glycerol, 0.5 mM DTT, 25 C, 20 min (1M7 step at 35 C); BLI: room temperature, 0.5; details: protein: recombinant; tags: Trx and His (Ni-NTA) fusion, pET-MG vector
[6] = biological target: T1, PABPN1 CCRRM fragment (coiled coil + …); assay: BLI; kon 4.1e-5 (so in the source), koff 1.71e-3 s-1; text ranks A12 lowest affinity, inconsistent with values; EMSA and SHAPE: 10 mM Tris-HCl pH 8.0, 25 mM KCl, 10 mM NaCl, 1 mM MgCl2, 10% glycerol, 0.5 mM DTT, 25 C, 20 min (1M7 step at 35 C); BLI: room temperature, 0.5; details: protein: recombinant; tags: Trx and His (Ni-NTA) fusion, pET-MG vector; label: 5' biotin

B1: U-rich RNA (ssRNA)
RNA: UAAUACGACUCACUAUAGGGUGGUCAGUCGAGUGGUUUUUUUUUUUUUUUUUUGGGCGGCAUGGUCCCAGCCUCCU
- binding result [1]: no binding

B2: RE_A-rich RNA (structured_RNA)
RNA: CCUUCGGGCCAAAUUUAUUUAUUUAUUUAUUUAGCUGACGAUAAAAAAAAAAAAAAAAAACCACACACACAGGAAUCGACUCUGUUUGUUUGUGUUUGUUUGUACUGAAUUGGCACUUUUCCCCUUUUCCCUUUCUGGACUGGCAUCGAUCCGGUUCGCCGGAUCCAAAUCGGGCUUCGGUCCGGUUC
- binding result [2]: binds

Binder: AAAAAAAAAAAAAAAAAA (ssRNA) [A18]
- Kd [3]: 4.79 nM

Binder: AAAAAA (ssRNA) [A6]
- Kd [4]: 3.38 nM

B3: A-rich RNA (ssRNA)
RNA: UAAUACGACUCACUAUAGGGUGGUCAGUCGAGUGGAAAAAAAAAAAAAAAAAAGGGCGGCAUGGUCCCAGCCUCCU
- binding result [5]: binds

Binder: AAAAAAAAAAAA (ssRNA) [A12]
- Kd [6]: 4.17 nM
